Laboratory results as given in patent publication US20220363763A1 (ABL BIO, published 2022).
Positions count from the first letter of the chain named. Names and notes keep the numbering of the source. Where two headings read alike, the source gives them in different places. Blank lines part the entries; values can stand above or below the binder they belong to.

Columns and labels:
[1] = target: T1, human PD-L1 (construct not stated) (human, UniProt Q9NZQ7 19-239, limits assumed); test: SPR Biacore, capture method
T1 construct: also called B7-H1 (PD-L1); PD-L1 protein
Experimental: (§1) The binding affinities of bispecific antibodies PD-L1 and LAG3 of the bispecific antibodies (BsAb; 147xH12, 147H3807xB6 and B6x147H3807) prepared in Example 3 to PD-L1 protein and human LAG3 protein were tested with BIACORE™ using a capture method.

[2] = target: T2, human LAG3 (construct not stated) (human, UniProt P18627 23-450, limits assumed); test: SPR Biacore, capture method
T2 construct: also called human LAG3 protein; antigen
T2 sequence (looked up): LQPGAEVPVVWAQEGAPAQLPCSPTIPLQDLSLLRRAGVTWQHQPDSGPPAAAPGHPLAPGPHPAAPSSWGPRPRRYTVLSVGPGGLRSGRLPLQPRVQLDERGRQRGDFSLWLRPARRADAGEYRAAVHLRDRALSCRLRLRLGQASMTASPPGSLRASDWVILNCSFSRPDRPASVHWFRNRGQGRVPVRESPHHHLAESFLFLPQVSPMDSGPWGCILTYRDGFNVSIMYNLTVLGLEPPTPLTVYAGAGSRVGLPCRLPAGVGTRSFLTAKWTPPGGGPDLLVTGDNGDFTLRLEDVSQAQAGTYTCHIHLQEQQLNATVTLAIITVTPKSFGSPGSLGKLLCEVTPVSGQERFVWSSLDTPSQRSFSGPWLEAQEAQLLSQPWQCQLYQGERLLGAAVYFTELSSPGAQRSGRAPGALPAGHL
Experimental: as §1

[3] = target: T1, human PD-L1 (construct not stated); test: SPR Biacore, affinity ranking
[4] = target: T3, human PD-L1 expressed on mammalian cells (human, UniProt Q9NZQ7 19-290); test: cell-based binding on Raji-PDL1 cells (FACS by paragraph 328; the y axis of the sheet is labelled IL2 (ng/ml)); EC50 table has no unit, x axis Concentration (nM)
T3 construct: whole, on cells; also called PDL1-CHOK1 cells; PDL1-Raji cells
Experimental: To evaluate the antigen binding property, the antibodies were analyzed for its binding to mammalian expressed PD-L1 by FACS. Briefly, PDL1-Raji cells were firstly incubated with 5-fold serious diluted humanized antibodies starting at 2 µg/ml at RT for 1 hour. After wash by FACS buffer (PBS with 2% FBS), the Alexa 488-anti-human IgG antibody was added to each well and incubated at RT for 1 hour. The MFI of Alexa 488 was evaluated by FACSAriaIII.

[5] = target: T1, human PD-L1 (construct not stated); test: BLI Octet Red 96, affinity ranking
Text: To explore the binding kinetics of the humanized antibody, this example performed the affinity ranking by using Octet Red 96.

[6] = target: T4, human PD-L1-his taq protein (human, UniProt Q9NZQ7 19-239, limits assumed); test: SPR Biacore T200, antibody captured, PD-L1-his injected
T4 construct: also called recombinant PD-L1 protein; recombinant human PD-L1; not shown: his tag
In short: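 HL1210-3 mouse mAb was captured via anti-mouse Fc antibody on a CM5 chip, then serially diluted PD-L1-his was injected for 3 min […]. Dissociation was followed for 900 s.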

[7] = target: T3, human PD-L1 expressed on mammalian cells; test: FACS receptor blocking on PDL1-CHOK1 cells, competitor Bio-PD1 (30 µg/ml)
Experimental: To evaluate the blocking effect of humanized antibodies on human PD-L1 expressed on mammalian cells to bind to its receptor PD-1, the FACS-based receptor blocking assay was employed. Briefly, PDL1-CHOK1 cells were firstly incubated with 3-fold serious diluted HL1210-3 mouse mAb starting at 20 μg/ml at RT for 1 hour. After wash by FACS buffer (PBS with 2% FBS), the biotin-labeled huPD-1 were added to each well and incubated at RT for 1 hour. Then, the Streptavidin-PE was added to each well for 0.5 hour post twice wash with FACS buffer. The mean florescence intensity (MFI) of PE was evaluated by FACSAriaIII.

human PD-L1-Fc protein [8] = target: T5, human PD-L1-Fc protein (human, UniProt Q9NZQ7 19-239); test: ELISA on coated human PD-L1-Fc; EC50 table has no unit, x axis Ab(nM)
T5 construct: Coated on ELISA plates; also called huPD-L1; not shown: Fc part
Experimental: (§2) To evaluate the antigen binding activity, the humanized antibodies were subjected to ELISA test. Briefly, microtiter plates were coated with human PD-L1-Fc protein at 0.1 μg/ml in PBS, 100 μl/well at 4° C. overnight, then blocked with 100 μl/well of 5% BSA. Five-fold dilutions of humanized antibodies starting from 10 μg/ml were added to each well and incubated for 1-2 hours at RT. The plates were washed with PBS/Tween and then incubate with […] antibody conjugated with Horse Radish Peroxidase (HRP) for 1 hour at RT. After washing, the plates were developed with TMB substrate and analyzed by spectrophotometer at OD 450-630 nm.

[9] = target: T3, human PD-L1 expressed on mammalian cells; test: flow cytometry (MFI) on PDL1-CHOK1 cells; EC50 table has no unit, x axis Antibodies(nM)
Experimental: (§3) To evaluate the antigen binding property, the humanized antibodies were analyzed for its binding to mammalian expressed PD-L1 by FACS. Briefly, PDL1-CHOK1 cells were firstly incubated with 5-fold serious diluted humanized antibodies starting at 2 μg/ml at RT for 1 hour. After wash by FACS buffer (PBS with 2% FBS), the alexa 488-anti-human IgG antibody was added to each well and incubated at RT for 1 hour. The MFI of Alexa 488 was evaluated by FACSAriaIII.

human PD-L1-Fc protein [10] = target: T5, human PD-L1-Fc protein; test: ELISA on coated human PD-L1-Fc; EC50 table has no unit, x axis Ab(nM); remark: listed apart in the source
Experimental: as §2

[11] = target: T3, human PD-L1 expressed on mammalian cells; test: flow cytometry (MFI) on PDL1-CHOK1 cells; EC50 table has no unit, x axis Antibodies(nM); remark: listed apart in the source
Experimental: as §3

human PD-L1-Fc protein [12] = target: T5, human PD-L1-Fc protein; test: ELISA on coated human PD-L1-Fc; EC50 table has no unit, x axis Ab(nM); remark: listed apart in the source
Experimental: as §2

[13] = target: T3, human PD-L1 expressed on mammalian cells; test: flow cytometry (MFI) on PDL1-CHOK1 cells; EC50 table has no unit, x axis Antibodies(nM); remark: listed apart in the source
Experimental: as §3

human PD-L1-Fc protein [14] = target: T5, human PD-L1-Fc protein; test: ELISA on coated human PD-L1-Fc, panel PD-L1
Text: To evaluate the binding activity to PD-L1 and LAG3 of the bispecific antibodies (BsAb; H12x147 and 147xH12) prepared in Example 3, the BsAb were subjected to ELISA test.

human PD-L1-Fc protein [15] = target: T5, human PD-L1-Fc protein; test: ELISA on coated human PD-L1-Fc; EC50 table has no unit, x axis Ab(nM); remark: listed apart in the source
Experimental: as §2

human PD-L1-Fc protein [16] = target: T5, human PD-L1-Fc protein; test: as above; remark: listed apart in the source
Experimental: as §2

T3 sequence (Q9NZQ7 19-290): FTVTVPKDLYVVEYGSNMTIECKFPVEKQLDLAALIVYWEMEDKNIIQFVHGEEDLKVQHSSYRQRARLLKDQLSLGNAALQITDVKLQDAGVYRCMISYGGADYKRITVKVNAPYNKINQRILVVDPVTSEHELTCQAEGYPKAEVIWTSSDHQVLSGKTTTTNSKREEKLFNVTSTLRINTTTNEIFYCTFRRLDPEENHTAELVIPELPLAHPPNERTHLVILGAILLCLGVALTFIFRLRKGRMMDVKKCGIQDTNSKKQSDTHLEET
T1 sequence (Q9NZQ7 19-239 limits assumed): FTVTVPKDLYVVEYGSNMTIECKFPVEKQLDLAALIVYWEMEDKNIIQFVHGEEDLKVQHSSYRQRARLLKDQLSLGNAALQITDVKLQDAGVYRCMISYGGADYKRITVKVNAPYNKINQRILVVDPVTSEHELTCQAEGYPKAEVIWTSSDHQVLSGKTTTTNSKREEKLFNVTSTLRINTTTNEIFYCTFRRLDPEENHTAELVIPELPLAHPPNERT
T5 sequence (Q9NZQ7 19-239 limits assumed): as above
T4 sequence (Q9NZQ7 19-239 limits assumed): as above

Kd [1]: 27.4 nM
Kd [2]: 13.5 nM
B1: 147xH12 (bispecific antibody, human IgG4 S228P, kappa)
heavy: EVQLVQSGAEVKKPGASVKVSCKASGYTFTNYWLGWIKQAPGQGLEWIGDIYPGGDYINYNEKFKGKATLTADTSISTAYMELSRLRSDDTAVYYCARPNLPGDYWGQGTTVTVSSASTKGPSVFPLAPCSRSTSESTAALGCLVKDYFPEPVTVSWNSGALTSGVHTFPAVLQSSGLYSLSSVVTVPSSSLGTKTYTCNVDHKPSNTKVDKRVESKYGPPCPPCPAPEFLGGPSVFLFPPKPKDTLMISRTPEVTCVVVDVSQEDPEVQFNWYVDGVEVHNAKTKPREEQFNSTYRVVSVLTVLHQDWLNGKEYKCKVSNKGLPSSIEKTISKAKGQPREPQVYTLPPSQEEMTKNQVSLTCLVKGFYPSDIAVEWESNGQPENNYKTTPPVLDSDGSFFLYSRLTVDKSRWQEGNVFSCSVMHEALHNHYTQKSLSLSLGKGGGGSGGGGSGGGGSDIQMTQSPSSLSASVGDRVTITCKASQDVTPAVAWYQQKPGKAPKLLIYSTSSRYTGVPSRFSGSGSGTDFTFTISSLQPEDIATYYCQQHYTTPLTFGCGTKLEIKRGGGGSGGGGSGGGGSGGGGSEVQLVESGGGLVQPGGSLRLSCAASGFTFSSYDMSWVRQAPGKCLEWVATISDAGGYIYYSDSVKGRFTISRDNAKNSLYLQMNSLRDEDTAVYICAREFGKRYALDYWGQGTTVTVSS
light: DIVMTQSPLSLPVTPGEPASISCRSSKSLLHSNGITYLYWYLQKPGQSPQLLIYQVSNLASGVPDRFSGSGSGTDFTLKISRVEAEDVGVYYCAQNLELPWTFGGGTKVEIKRTVAAPSVFIFPPSDEQLKSGTASVVCLLNNFYPREAKVQWKVDNALQSGNSQESVTEQDSKDSTYSLSSTLTLSKADYEKHKVYACEVTHQGLSSPVTKSFNRGEC
notes: also called A3L1

Kd [1]: 5.94 nM
Kd [2]: 1.63 nM
B2: 147(H3807)xB6 (bispecific antibody, human IgG4 S228P, kappa)
heavy: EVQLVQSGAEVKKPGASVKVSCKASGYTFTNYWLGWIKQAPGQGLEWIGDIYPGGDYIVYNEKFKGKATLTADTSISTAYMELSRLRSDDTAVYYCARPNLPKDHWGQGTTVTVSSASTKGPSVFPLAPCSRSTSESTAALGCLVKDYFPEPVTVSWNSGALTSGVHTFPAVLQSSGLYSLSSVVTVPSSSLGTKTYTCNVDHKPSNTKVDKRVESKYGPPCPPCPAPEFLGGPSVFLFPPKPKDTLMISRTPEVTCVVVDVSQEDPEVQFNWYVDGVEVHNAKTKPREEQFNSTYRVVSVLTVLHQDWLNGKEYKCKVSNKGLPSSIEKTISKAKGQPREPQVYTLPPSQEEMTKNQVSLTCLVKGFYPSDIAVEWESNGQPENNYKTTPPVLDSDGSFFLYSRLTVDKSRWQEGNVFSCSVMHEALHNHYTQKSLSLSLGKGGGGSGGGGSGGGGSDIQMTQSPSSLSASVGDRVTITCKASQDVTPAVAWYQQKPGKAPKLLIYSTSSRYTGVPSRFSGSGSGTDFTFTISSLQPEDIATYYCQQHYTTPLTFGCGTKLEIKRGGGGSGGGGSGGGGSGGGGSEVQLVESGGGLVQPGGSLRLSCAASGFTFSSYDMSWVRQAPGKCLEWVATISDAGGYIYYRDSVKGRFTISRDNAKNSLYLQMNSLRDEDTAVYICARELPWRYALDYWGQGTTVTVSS
light: B1 light with N33Q, N96Y

Kd [3]: 2.63 nM
koff [3]: 0.000464 s⁻¹
kon [3]: 177000 M⁻¹ s⁻¹
EC50 [4]: 5.04 nM
B3: WT (parental clone of the Hu1210-41 engineering) (antibody, V domains shown)
VH: EVQLVESGGGLVQPGGSLRLSCAASGFTFSSYDMSWVRQAPGKSLEWVATISDAGGYIYYRDSVKGRFTISRDNAKNSLYLQMNSLRDEDTAVYICAREFGKRYALDYWGQGTTVTVSS
VL: DIQMTQSPSSLSASVGDRVTITCKASQDVTPAVAWYQQKPGKAPKLLIYSTSSRYTGVPSRFSGSGSGTDFTFTISSLQPEDIATYYCQQHYTTPLTFGQGTKLEIK
notes: Differs from Hu1210-41 by S60R (Kabat) in the heavy chain; also called parental antibody WT; parent antibody WT

Kd [5]: 1.64 nM
koff [5]: 0.000127 s⁻¹
kon [5]: 77200 M⁻¹ s⁻¹
Kd [6]: 0.767 nM
koff [6]: 7.17e-05 s⁻¹
kon [6]: 93500 M⁻¹ s⁻¹
TOP [7]: 86.3
EC50 (human PD-L1-Fc protein [8]): 0.186 nM
EC50 [9]: 1.23 nM
B4: Hu1210-8 (antibody, V domains shown)
VH: B3 VH with Q13K, S44G, A54G, R61S, D88A, I95Y
VL: B3 VL with A43S
notes: Hu1210 VH.1a x Vk.1a; human gamma 1 / kappa constant domains

Kd [5]: 2.56 nM
koff [5]: 0.00023 s⁻¹
kon [5]: 90000 M⁻¹ s⁻¹
TOP [7]: 85.8
EC50 (human PD-L1-Fc protein [10]): 0.148 nM
EC50 [11]: 1.17 nM
B5: Hu1210-22 (antibody, V domains shown)
VH: B3 VH with A54G, R61S
VL: B3 VL with A43S
notes: Hu1210 VH.4b x Vk.1a; human gamma 1 / kappa constant domains

Kd [5]: 2.34 nM
koff [5]: 0.000197 s⁻¹
kon [5]: 84100 M⁻¹ s⁻¹
Kd [6]: 0.435 nM
koff [6]: 5.29e-05 s⁻¹
kon [6]: 122000 M⁻¹ s⁻¹
TOP [7]: 79.6
EC50 (human PD-L1-Fc protein [12]): 0.163 nM
EC50 [13]: 1.46 nM
B6: Hu1210-14 (antibody, V domains shown)
VH: B3 VH with V5L, A54G, R61S, A75S, S78T, D88A
VL: B3 VL
notes: Hu1210 VH.3a x Vk.1; human gamma 1 / kappa constant domains

Kd [5]: 3.14 nM
koff [5]: 0.000264 s⁻¹
kon [5]: 84100 M⁻¹ s⁻¹
Kd [6]: 0.672 nM
koff [6]: 6.7e-05 s⁻¹
kon [6]: 99800 M⁻¹ s⁻¹
TOP [7]: 88
EC50 (human PD-L1-Fc protein [12]): 0.179 nM
EC50 [13]: 1.41 nM
B7: Hu1210-16 (antibody, V domains shown)
VH: B3 VH with S44G, A54G, R61S, I95Y
VL: B3 VL
notes: Hu1210 VH.4a x Vk.1; human gamma 1 / kappa constant domains

EC50 (read off the curve) (human PD-L1-Fc protein [14]): ~1 nM
B8: H12x147(H3807) (bispecific antibody, human IgG1, kappa, N297A)
heavy chain of H12 (IgG) - linker - scFv of 147(H3807) (VL - linker - VH): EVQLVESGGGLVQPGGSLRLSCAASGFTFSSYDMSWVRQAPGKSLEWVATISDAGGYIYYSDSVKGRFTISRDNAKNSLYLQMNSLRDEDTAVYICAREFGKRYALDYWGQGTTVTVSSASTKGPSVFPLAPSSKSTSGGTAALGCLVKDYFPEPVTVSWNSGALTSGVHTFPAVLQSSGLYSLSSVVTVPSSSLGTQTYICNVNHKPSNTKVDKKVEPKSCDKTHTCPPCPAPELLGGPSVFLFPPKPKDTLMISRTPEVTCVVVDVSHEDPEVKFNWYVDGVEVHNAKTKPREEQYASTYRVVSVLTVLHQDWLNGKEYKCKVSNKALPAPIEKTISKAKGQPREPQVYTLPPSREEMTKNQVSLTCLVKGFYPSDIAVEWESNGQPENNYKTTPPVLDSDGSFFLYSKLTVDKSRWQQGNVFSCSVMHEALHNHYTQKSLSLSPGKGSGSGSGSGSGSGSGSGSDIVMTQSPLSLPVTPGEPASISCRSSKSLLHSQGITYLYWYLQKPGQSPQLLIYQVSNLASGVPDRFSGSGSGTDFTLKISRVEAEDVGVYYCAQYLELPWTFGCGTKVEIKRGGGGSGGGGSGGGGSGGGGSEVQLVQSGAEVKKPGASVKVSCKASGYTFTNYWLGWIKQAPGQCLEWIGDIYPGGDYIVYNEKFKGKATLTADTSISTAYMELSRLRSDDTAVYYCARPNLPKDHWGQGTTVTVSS
light chain of H12: DIQMTQSPSSLSASVGDRVTITCKASQDVTPAVAWYQQKPGKAPKLLIYSTSSRYTGVPSRFSGSGSGTDFTFTISSLQPEDIATYYCQQHYTTPLTFGQGTKLEIKRTVAAPSVFIFPPSDEQLKSGTASVVCLLNNFYPREAKVQWKVDNALQSGNSQESVTEQDSKDSTYSLSSTLTLSKADYEKHKVYACEVTHQGLSSPVTKSFNRGEC

Kd [1]: 1.18 nM
Kd [2]: 8.87 nM
EC50 (read off the curve) (human PD-L1-Fc protein [14]): ~0.3 nM
B9: B6x147(H3807) (bispecific antibody, human IgG1, kappa, N297A)
heavy: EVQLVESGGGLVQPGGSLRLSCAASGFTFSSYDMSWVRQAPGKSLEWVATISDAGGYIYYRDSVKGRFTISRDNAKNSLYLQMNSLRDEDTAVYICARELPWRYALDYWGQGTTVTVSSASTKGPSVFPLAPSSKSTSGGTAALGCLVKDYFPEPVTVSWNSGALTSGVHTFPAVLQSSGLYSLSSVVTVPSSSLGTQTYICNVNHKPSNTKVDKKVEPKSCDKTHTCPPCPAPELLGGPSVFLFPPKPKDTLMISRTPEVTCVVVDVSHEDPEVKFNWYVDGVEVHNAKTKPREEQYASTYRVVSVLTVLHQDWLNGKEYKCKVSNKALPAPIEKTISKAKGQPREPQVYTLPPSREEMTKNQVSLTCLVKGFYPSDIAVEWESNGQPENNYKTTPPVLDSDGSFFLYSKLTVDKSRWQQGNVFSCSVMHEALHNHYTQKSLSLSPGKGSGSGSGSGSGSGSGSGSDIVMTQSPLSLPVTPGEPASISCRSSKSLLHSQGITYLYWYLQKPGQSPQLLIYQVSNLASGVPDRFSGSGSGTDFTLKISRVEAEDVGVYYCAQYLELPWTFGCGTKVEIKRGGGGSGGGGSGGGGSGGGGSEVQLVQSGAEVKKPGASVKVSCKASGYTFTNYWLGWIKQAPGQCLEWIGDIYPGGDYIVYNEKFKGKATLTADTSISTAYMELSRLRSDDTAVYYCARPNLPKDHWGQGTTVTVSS
light: B8 light chain of H12

Kd [5]: 1.07 nM
koff [5]: 0.000173 s⁻¹
kon [5]: 162000 M⁻¹ s⁻¹
Kd [6]: 0.264 nM
koff [6]: 3.27e-05 s⁻¹
kon [6]: 124000 M⁻¹ s⁻¹
TOP [7]: 87.2
EC50 (human PD-L1-Fc protein [8]): 0.177 nM
EC50 (human PD-L1-Fc protein [12]): 0.139 nM
EC50 (human PD-L1-Fc protein [10]): 0.169 nM
EC50 (human PD-L1-Fc protein [15]): 0.16 nM
EC50 (human PD-L1-Fc protein [16]): 0.17 nM
EC50 [9]: 0.95 nM
EC50 [13]: 0.95 nM
EC50 [11]: 0.95 nM
B10: H1210 chimera (antibody, V domains shown)
VH: EVKLVESGGDLVKPGGSLKLSCAASGFTFSSYDMSWVRQTPEKSLEWVATISDGGGYIYYSDSVKGRFTISRDNAKNNLYLQMSSLRSEDTALYICAREFGKRYALDYWGQGTSVTVSS
VL: DIVMTQSHKFMSTSVGDRVSISCKASQDVTPAVAWYQQKPGQSPKLLIYSTSSRYTGVPDRFTGSGSGTDFTFTISSVQAEDLAVYYCQQHYTTPLTFGAGTKLELK
notes: also called chimeric antibody
